These results are taken from the PETadex activity labels (doi:10.1128/aem.02773-17).

Substrate in data set [1]: pNPB
The experiment in a line: Proxy for plastic degradation [Relative activity].

Substrate in data set [2]: PET
As to the kind of experiment: Proxy for plastic degradation [Released monomer concentration (HPLC/LC-MS) (terephthalic acid)]. Particulars: pH 8.

B1: unnamed (protein)
chain: MNVLTKCKLALGIIAIFFSLPSFAVPCSDCSNGFERGQVPRVDQLESSRGPYSVKTINVSRLARGFGGGTIHYSTESGGQQGIIAVVPGYVSLEGSIKWWGPRLASWGFTVITIDTNTIYDQPDSRASQLSAAIDYVIDKGNDRSSPIYGLVDPNRVGVIGWSMGGGGSLKLATDRKIDAVIPQAPWYLGLSRFSSITSPTMIIACQADVVAPVSVHASRFYNQIPGTTPKAYFEIALGSHFCANTGYPSEDILGRNGVAWMKRFIDKDERYTQFLCGQNFDSSLRVSEYRDNCSYY
Take B1: the “Proxy for plastic degradation” value in data set [1] (pH 3) stood at 0%; in data set [1] (pH 4), 0%; in data set [1] (pH 5), 0%; in data set [1] (pH 6) it was 11%; in data set [1] (pH 7, 17 °C), 60%; in data set [1] (pH 7, 22 °C), 60%. Further, the “Proxy for plastic degradation” value in data set [1] (pH 7, 28 °C) was 62%; in data set [1] (pH 7, 37 °C), 72%; in data set [1] (pH 7, 42 °C) it was 82%; in data set [1] (pH 7, 55 °C), 100%; in data set [1] (pH 7, 60 °C), 81%; in data set [1] (pH 7, 70 °C) it was 81%. In addition, the “Proxy for plastic degradation” value turned out to be 55% in data set [1] (pH 7, 80 °C); 35% in data set [1] (pH 7, 90 °C); 100% in data set [1] (pH 8); 76% in data set [1] (pH 9.2); 48% in data set [1] (pH 10.2).

B2: unnamed (protein)
chain: MPITARNTLASLLLASSALLLSGTAFAANPPGGDPDPGCQTDCNYQRGPDPTDAYLEAASGPYTVSTIRVSSLVPGFGGGTIHYPTNAGGGKMAGIVVIPGYLSFESSIEWWGPRLASHGFVVMTIDTNTIYDQPSQRRDQIEAALQYLVNQSNSSSSPISGMVDSSRLAAVGWSMGGGGTLQLAADGGIKAAIALAPWNSSINDFNRIQVPTLIFACQLDAIAPVALHASPFYNRIPNTTPKAFFEMTGGDHWCANGGNIYSALLGKYGVSWMKLHLDQDTRYAPFLCGPNHAAQTLISEYRGNCPY
Regarding B2, the “Proxy for plastic degradation” value came out at 0% in data set [1] (pH 3); 0% in data set [1] (pH 4); 0% in data set [1] (pH 5); 4% in data set [1] (pH 6); 63% in data set [1] (pH 7, 17 °C); 70% in data set [1] (pH 7, 22 °C). The “Proxy for plastic degradation” value in data set [1] (pH 7, 28 °C) amounted to 71%; in data set [1] (pH 7, 37 °C), 77%; in data set [1] (pH 7, 42 °C), 76%; in data set [1] (pH 7, 55 °C), 82%; in data set [1] (pH 7, 60 °C) it was 100%; in data set [1] (pH 7, 70 °C) it was 100%. Also, the “Proxy for plastic degradation” value in data set [1] (pH 7, 80 °C) is 81%; in data set [1] (pH 7, 90 °C), 82%; in data set [1] (pH 8), 100%; in data set [1] (pH 9.2) it was 99%; in data set [1] (pH 10.2), 90%; in data set [2] it was 900 µM.
